For series [1], the system named is recombinant human GFAP with C-terminal tag (DDK).
The test system of series [2] is human Tau.
Series [3] deals with rat Tau (intact protein).
Chain of rat Tau (intact protein) (chain, as listed by the source): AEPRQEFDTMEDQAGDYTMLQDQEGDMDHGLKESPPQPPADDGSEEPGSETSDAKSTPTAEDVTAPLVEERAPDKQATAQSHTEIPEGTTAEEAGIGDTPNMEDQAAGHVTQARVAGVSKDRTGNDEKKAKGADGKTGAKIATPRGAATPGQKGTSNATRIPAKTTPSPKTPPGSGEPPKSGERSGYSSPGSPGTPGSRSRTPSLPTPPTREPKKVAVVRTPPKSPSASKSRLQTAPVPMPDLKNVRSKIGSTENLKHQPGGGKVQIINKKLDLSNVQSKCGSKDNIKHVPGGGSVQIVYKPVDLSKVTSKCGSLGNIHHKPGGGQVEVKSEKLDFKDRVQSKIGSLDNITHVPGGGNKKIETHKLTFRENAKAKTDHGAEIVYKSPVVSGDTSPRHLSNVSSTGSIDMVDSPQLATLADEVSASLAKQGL

Chain of calpain-2 (P17655 20-700): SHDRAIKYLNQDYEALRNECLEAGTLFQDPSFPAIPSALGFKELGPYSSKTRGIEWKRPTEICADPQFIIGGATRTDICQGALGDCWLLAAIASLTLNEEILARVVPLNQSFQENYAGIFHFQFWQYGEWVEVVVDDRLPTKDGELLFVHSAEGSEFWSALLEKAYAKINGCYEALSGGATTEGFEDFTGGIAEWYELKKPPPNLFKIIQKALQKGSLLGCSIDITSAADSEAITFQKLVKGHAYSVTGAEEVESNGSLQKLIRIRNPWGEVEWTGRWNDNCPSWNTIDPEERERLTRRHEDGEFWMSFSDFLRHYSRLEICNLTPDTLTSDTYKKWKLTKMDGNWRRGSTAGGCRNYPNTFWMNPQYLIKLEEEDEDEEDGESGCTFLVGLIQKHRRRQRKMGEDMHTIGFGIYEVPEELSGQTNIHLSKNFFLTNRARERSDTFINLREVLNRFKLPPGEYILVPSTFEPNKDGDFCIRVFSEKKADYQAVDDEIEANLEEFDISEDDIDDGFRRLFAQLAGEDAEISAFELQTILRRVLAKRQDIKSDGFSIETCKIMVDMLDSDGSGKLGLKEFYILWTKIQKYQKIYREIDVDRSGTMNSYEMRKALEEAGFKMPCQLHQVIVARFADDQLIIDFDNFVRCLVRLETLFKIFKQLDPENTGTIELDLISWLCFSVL
Chain of recombinant human GFAP with C-terminal tag (DDK) (chain, as listed by the source): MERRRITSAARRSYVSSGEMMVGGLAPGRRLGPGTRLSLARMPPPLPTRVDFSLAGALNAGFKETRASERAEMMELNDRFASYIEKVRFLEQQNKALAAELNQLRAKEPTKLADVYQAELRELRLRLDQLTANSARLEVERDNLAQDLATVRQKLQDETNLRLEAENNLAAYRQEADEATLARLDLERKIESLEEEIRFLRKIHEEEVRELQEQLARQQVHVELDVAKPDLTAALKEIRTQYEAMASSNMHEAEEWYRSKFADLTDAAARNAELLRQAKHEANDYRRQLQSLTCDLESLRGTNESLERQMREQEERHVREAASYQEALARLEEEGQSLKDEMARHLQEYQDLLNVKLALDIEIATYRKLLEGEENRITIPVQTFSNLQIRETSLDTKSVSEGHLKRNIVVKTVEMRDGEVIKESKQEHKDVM
Chain of calpain-1 (P07384 2-714): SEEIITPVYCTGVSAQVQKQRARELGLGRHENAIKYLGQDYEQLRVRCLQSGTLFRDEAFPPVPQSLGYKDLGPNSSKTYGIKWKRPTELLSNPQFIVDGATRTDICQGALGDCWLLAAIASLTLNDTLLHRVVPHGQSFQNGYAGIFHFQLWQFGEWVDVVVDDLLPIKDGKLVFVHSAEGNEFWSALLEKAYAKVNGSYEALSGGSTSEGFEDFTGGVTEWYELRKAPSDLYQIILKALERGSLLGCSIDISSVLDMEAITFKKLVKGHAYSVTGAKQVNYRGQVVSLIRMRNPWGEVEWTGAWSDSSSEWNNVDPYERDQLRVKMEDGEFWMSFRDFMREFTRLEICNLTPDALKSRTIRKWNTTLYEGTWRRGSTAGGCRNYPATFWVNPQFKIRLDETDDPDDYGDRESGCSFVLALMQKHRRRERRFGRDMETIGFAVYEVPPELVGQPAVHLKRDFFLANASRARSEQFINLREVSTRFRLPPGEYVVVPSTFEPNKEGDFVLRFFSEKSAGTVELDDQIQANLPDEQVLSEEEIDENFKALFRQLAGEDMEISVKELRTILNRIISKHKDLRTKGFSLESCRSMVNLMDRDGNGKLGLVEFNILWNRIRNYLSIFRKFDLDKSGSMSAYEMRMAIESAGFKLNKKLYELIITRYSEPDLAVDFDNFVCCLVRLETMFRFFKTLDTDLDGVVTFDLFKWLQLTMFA

In the case of calpain-2, the “proteolytic cleavage; N-terminal sequencing of excised GBDP bands” value in series [1] is “cleavage by calpain 2 at Asn59 (GALN*59AGFKETRASERAE) ... and Thr383 (TIPVQT*383FSNLQIRET) ... overall producing multiple GBDPs between 49 and 38 kDa in recombinant human GFAP”. Moreover, the “proteolytic digestion, western blot with anti-total tau antibody” value in series [2] is given as “Treatment of human tau with calpain or caspase produce numerous breakdown products”. Besides, in series [3], the “proteolytic digestion, western blot of fragments” value was “Both calpain-1 and -2 digest tau into several immunoreactive fragments (42 kDa, 35 kDa and 15 kDa)”.

In the case of caspase-3, the “proteolytic cleavage (Coomassie, anti-DDK and anti-GFAP western blot)” value in series [1] was “illustrates successful cleavage by both calpain and caspase”. In series [2], the proteolytic cleavage sites result was “Caspase cleavage sites in human Tau are Asp25 (GDRKD*25QGGYTMHQD (SEQ ID NO: 17)) ... and Asp421 (SSTGSIDMVD*421SPQLATLA (SEQ ID NO: 18))”; the “proteolytic digestion, western blot with anti-total tau antibody” value was “Treatment of human tau with calpain or caspase produce numerous breakdown products”. Moreover, in series [3], the “proteolytic cleavage; N-terminal sequencing of fragments” value is listed as “Caspase-3 cleaves rat Tau at Asp412 (SSTGSIDMVD*412SPQLATLA (SEQ ID NO: 10))” and the “proteolytic digestion, western blot of fragments” value is on record as “caspase-3 digestion only produces limited fragment doublet of 48 kDa/45/kDa”.

As for calpain (calpain 2 or calpain 1), the proteolytic cleavage sites result in series [2] is “Human TBDPs are produced from Human Tau by calpain cleavage at Ser129 ... Val229 ... Gly157 ... Lys44 ... and Arg379”. Moreover, in series [3], the “proteolytic cleavage; N-terminal sequencing of fragments” value is “Calpain cleaves rat tau at Lys43 ... Ser120 ... Val220 ... and Arg370”.

As to calpain-1, the “proteolytic digestion, western blot of fragments” value in series [3] is “Both calpain-1 and -2 digest tau into several immunoreactive fragments (42 kDa, 35 kDa and 15 kDa)”.

These data come from patent publication US20170242041.
